{"source": "patent US20220332804A1", "about": "(CSL INNOVATION, published 2022)", "binders": {"B1": {"name": "RF16-226 (antibody, human IgG4 S228P, lambda)", "heavy": "not shown", "light": "SYELTQPPSVSVSPGQTARITCSGDALTSKYVAWYQQKSGLAPLLVIYEDTRRPSGIPAKFSGSSSGSVATLTISGAHGDDEADYYCYSTDASGHQRVFGGGTKLTVLSQPKAAPSVTLFPPSSEELQANKATLVCLISDFYPGAVTVAWKADGSPVKAGVETTKPSKQSNNKYAASSYLSLTPEQWKSHRSYSCQVTHEGSTVEKTVAPTECS", "notes": "pH-dependent anti-C2 antibody from a phage display library; also called WT"}}, "assay_in_all_cases": "SPR, KD relative to WT C2;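 further: biacore SPR at 37 °C, anti-C2 mAbs captured via immobilised goat anti-human IgG, C2 alanine or serine surface mutants as analytes, 1:1 model fitted, double-referenced sensograms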", "key": {"human C2 S713A": {"target": "T1, human C2 S713A (human, UniProt P06681 21-752)", "T1 sequence": "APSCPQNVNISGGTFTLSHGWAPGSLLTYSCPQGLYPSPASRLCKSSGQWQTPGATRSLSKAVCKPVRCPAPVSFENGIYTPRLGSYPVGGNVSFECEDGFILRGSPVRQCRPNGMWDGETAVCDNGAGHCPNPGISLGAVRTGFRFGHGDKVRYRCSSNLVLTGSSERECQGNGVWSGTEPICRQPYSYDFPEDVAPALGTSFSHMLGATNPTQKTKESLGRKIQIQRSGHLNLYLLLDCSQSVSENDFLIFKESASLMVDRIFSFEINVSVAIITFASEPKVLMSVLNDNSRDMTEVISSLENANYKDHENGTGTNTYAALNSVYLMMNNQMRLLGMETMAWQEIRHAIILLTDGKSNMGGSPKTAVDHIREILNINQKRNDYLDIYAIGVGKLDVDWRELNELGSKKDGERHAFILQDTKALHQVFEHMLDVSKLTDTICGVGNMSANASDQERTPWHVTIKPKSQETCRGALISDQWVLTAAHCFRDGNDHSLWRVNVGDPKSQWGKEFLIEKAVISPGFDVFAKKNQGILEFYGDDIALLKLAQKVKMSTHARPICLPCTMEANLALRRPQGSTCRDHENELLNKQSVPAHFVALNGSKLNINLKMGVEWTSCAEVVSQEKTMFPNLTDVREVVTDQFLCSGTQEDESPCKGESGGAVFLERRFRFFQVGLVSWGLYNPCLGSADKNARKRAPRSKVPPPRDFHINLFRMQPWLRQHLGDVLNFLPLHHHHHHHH"}, "human C2 L279A": {"target": "T2, human C2 L279A (human, UniProt P06681 21-752)", "T2 sequence": "T1 sequence with L259A, A693S"}, "human C2 G414A": {"target": "T3, human C2 G414A (human, UniProt P06681 21-752)", "T3 sequence": "T1 sequence with G394A, A693S"}, "human C2 T442A": {"target": "T4, human C2 T442A (human, UniProt P06681 21-752)", "T4 sequence": "T1 sequence with T422A, A693S"}}, "note": "Where a chain is given by its changes, count along the chain named."}
{"binder": "B1", "values": [{"measurement": "Fold diff", "setting": "human C2 S713A", "value": 2, "unit": "fold"}, {"measurement": "Fold diff", "setting": "human C2 L279A", "value": 5, "unit": "fold"}, {"measurement": "Fold diff", "setting": "human C2 G414A", "value": 1, "unit": "fold"}, {"measurement": "Fold diff", "setting": "human C2 T442A", "value": 2, "unit": "fold"}]}
